The text below walks through data of the supplement of paper PMC9233669.

The test system of one series is biotinyl-Phe-oxazolone. Kind of series: self-aminoacylation, catalytic enhancement (BFO) (fold over background); higher = more active; k-Seq, kA / k0A0; sequences stand for … in GGGAAUGGAUCCACAUCUACGAAUUC…UUCACUGCAGACUUGACGAAGCUG
The gist of the method: (§1)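 Mutagenized RNA pools (0.43 μM; 21-nt variable region) were treated with 2–1250 μM of each biotinyl-aminoacyl-oxazolone. Conditions were 50 μL HEPES/NaCl/KCl/MgCl2/CaCl2 buffer, 5% acetonitrile, pH 6.9–7.0, room temperature, 90 minutes. Catalytic enhancement, the median kA relative to the uncatalyzed rate, was derived from streptavidin capture, qPCR and Illumina sequencing.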

The test system of another series is biotinyl-Ile-oxazolone. Kind of series: self-aminoacylation, catalytic enhancement (BIO) (fold over background); higher = more active; k-Seq, kA / k0A0; sequences stand for … in GGGAAUGGAUCCACAUCUACGAAUUC…UUCACUGCAGACUUGACGAAGCUG
A digest of the protocol: as §1

The next series deals with biotinyl-Met-oxazolone. Kind of series: self-aminoacylation, catalytic enhancement (BMO) (fold over background); higher = more active; k-Seq, kA / k0A0; sequences stand for … in GGGAAUGGAUCCACAUCUACGAAUUC…UUCACUGCAGACUUGACGAAGCUG
A digest of the protocol:
as §1

In a further series the test system is biotinyl-Val-oxazolone. Kind of series: self-aminoacylation, catalytic enhancement (BVO) (fold over background); higher = more active; k-Seq, kA / k0A0; sequences stand for … in GGGAAUGGAUCCACAUCUACGAAUUC…UUCACUGCAGACUUGACGAAGCUG
The gist of the method:
as §1

Another series deals with biotinyl-Leu-oxazolone. Kind of series: self-aminoacylation, catalytic enhancement (BLO) (fold over background); higher = more active; k-Seq, kA / k0A0; sequences stand for … in GGGAAUGGAUCCACAUCUACGAAUUC…UUCACUGCAGACUUGACGAAGCUG
A digest of the protocol:
as §1

For another series, the system named is biotinyl-Trp-oxazolone. Kind of series: self-aminoacylation, catalytic enhancement (BWO) (fold over background); higher = more active; k-Seq, kA / k0A0; sequences stand for … in GGGAAUGGAUCCACAUCUACGAAUUC…UUCACUGCAGACUUGACGAAGCUG
The gist of the method: as §1

Fewer inactive variants are shown than the library holds.

For the sequence “AUUACCUUGGUCAUCGCGUGA [Fam2.1 aminoacylation ribozyme variant]”, the self-aminoacylation with biotinyl-Phe-oxazolone amounted to 130; in the series with biotinyl-Ile-oxazolone it was 7.37; with biotinyl-Met-oxazolone, 17.3; in the series on biotinyl-Val-oxazolone, 9.23; in the series with biotinyl-Leu-oxazolone, 19.2; with biotinyl-Trp-oxazolone, 19.5.

As to “AUUCACGUAGGUCACCGGGUG [Fam2.2 aminoacylation ribozyme variant]”, the self-aminoacylation in the series with biotinyl-Phe-oxazolone was 62.5; in the series with biotinyl-Ile-oxazolone, 5.08; with biotinyl-Met-oxazolone it was 7.45; with biotinyl-Val-oxazolone, 5.08; in the series with biotinyl-Leu-oxazolone, 8.29; in the series with biotinyl-Trp-oxazolone it was 7.15.

For “AUUACCCUGGUCAUCAAGUGC [Fam2.1 aminoacylation ribozyme variant]”, the self-aminoacylation was 0.434 in the series with biotinyl-Phe-oxazolone; 0.689 in the series on biotinyl-Ile-oxazolone; 0.691 in the series with biotinyl-Met-oxazolone; 0.795 in the series on biotinyl-Val-oxazolone; 0.567 in the series with biotinyl-Leu-oxazolone; 0.302 in the series with biotinyl-Trp-oxazolone.

As to “AUGUUUGCUAACAGUCGCAAG [Fam3.1 aminoacylation ribozyme variant]”, the self-aminoacylation in the series on biotinyl-Phe-oxazolone is 5.92; in the series with biotinyl-Ile-oxazolone it was 1.59; in the series with biotinyl-Met-oxazolone it was 1.61; in the series with biotinyl-Val-oxazolone, 1.43; in the series on biotinyl-Leu-oxazolone it was 1.49; in the series on biotinyl-Trp-oxazolone it was 3.34.

For “CCACGCUUCAGGCAAUCGGUC [Fam1B.1 aminoacylation ribozyme variant]”, the self-aminoacylation with biotinyl-Phe-oxazolone came to 1.41; in the series with biotinyl-Ile-oxazolone, 1.22; in the series on biotinyl-Met-oxazolone, 1.35; in the series on biotinyl-Val-oxazolone, 1.77; with biotinyl-Leu-oxazolone, 1.39; with biotinyl-Trp-oxazolone, 1.35.

Take “AUUCACCUAGGUGAUCGGCUG [Fam2.2 aminoacylation ribozyme variant]”: the self-aminoacylation was 9.04 with biotinyl-Phe-oxazolone; 1.77 with biotinyl-Ile-oxazolone; 1.74 in the series with biotinyl-Met-oxazolone; 1.66 with biotinyl-Val-oxazolone; 1.98 in the series on biotinyl-Leu-oxazolone; 1.67 in the series with biotinyl-Trp-oxazolone.

Consider “AUUCACCAAGGUCAGCGGGUG [Fam2.2 aminoacylation ribozyme variant]”, for which the self-aminoacylation with biotinyl-Phe-oxazolone was determined as 29.3; in the series with biotinyl-Ile-oxazolone, 4.01; in the series on biotinyl-Met-oxazolone it was 4.83; with biotinyl-Val-oxazolone it was 3.95; in the series with biotinyl-Leu-oxazolone it was 5.4; in the series on biotinyl-Trp-oxazolone it was 4.65.

As to “CCACACUUCAAUCAAUGGGUC [Fam1B.1 aminoacylation ribozyme variant]”, the self-aminoacylation with biotinyl-Phe-oxazolone came to 0.724; with biotinyl-Ile-oxazolone it was 0.801; in the series with biotinyl-Met-oxazolone it was 0.651; with biotinyl-Val-oxazolone it was 0.724; in the series on biotinyl-Leu-oxazolone it was 0.564; with biotinyl-Trp-oxazolone it was 0.467.

On to “ACUGACCUAGGUCAUCGGGUG [Fam2.2 aminoacylation ribozyme variant]”, for which the self-aminoacylation in the series on biotinyl-Phe-oxazolone was found to be 32.9; with biotinyl-Ile-oxazolone, 4.97; in the series on biotinyl-Met-oxazolone it was 6.84; with biotinyl-Val-oxazolone, 5; in the series on biotinyl-Leu-oxazolone, 7.25; in the series on biotinyl-Trp-oxazolone, 7.32.

As to “AUUACCCUGCGCAUCGAGUGA [Fam2.1 aminoacylation ribozyme variant]”, the self-aminoacylation in the series on biotinyl-Phe-oxazolone worked out at 20.5; in the series on biotinyl-Ile-oxazolone, 2.03; with biotinyl-Met-oxazolone it was 5.86; with biotinyl-Val-oxazolone, 2.56; in the series with biotinyl-Leu-oxazolone it was 5.76; with biotinyl-Trp-oxazolone it was 6.75.

For the sequence “AAUUUUGCUAUUAGUCGCAAG [Fam3.1 aminoacylation ribozyme variant]”, the self-aminoacylation with biotinyl-Phe-oxazolone amounted to 2.76; in the series on biotinyl-Ile-oxazolone it was 1.98; in the series on biotinyl-Met-oxazolone, 1.71; in the series on biotinyl-Val-oxazolone it was 1.63; in the series with biotinyl-Leu-oxazolone it was 1.89; in the series on biotinyl-Trp-oxazolone it was 1.85.

On to “AUUACCCUGAUCAUCGAGGGA [Fam2.1 aminoacylation ribozyme variant]”, for which the self-aminoacylation in the series on biotinyl-Phe-oxazolone is 0.999; in the series with biotinyl-Ile-oxazolone, 1.09; in the series with biotinyl-Met-oxazolone it was 1.02; with biotinyl-Val-oxazolone it was 1.21; with biotinyl-Leu-oxazolone, 1.87; with biotinyl-Trp-oxazolone, 2.33.

For “CUACUUCACACGAUCGGUCUG [Fam1A.1 aminoacylation ribozyme variant]”, the self-aminoacylation in the series on biotinyl-Phe-oxazolone was determined as 0.678; in the series on biotinyl-Ile-oxazolone it was 0.913; in the series with biotinyl-Met-oxazolone it was 0.97; with biotinyl-Val-oxazolone, 0.777; in the series with biotinyl-Leu-oxazolone it was 0.853; in the series with biotinyl-Trp-oxazolone, 0.654.

Regarding “AUUACCCUCGUCAUCGAGUGU [Fam2.1 aminoacylation ribozyme variant]”, the self-aminoacylation with biotinyl-Phe-oxazolone is 1.56; with biotinyl-Ile-oxazolone it was 1.34; in the series with biotinyl-Met-oxazolone it was 1.88; in the series with biotinyl-Val-oxazolone, 1.4; with biotinyl-Leu-oxazolone, 2; with biotinyl-Trp-oxazolone, 1.49.

On to “GUUACCCUGGUCAUCGAGAGA [Fam2.1 aminoacylation ribozyme variant]”, for which the self-aminoacylation was 2.82 in the series on biotinyl-Phe-oxazolone; 1.32 with biotinyl-Ile-oxazolone; 2.96 in the series with biotinyl-Met-oxazolone; 1.74 in the series on biotinyl-Val-oxazolone; 1.9 in the series on biotinyl-Leu-oxazolone; 3.07 in the series on biotinyl-Trp-oxazolone.

Regarding “AUUCAGCUAGGUCACCGGGUG [Fam2.2 aminoacylation ribozyme variant]”, the self-aminoacylation with biotinyl-Phe-oxazolone was found to be 51.6; in the series on biotinyl-Ile-oxazolone, 4.69; in the series on biotinyl-Met-oxazolone, 7.17; with biotinyl-Val-oxazolone, 4.32; with biotinyl-Leu-oxazolone it was 6.32; in the series with biotinyl-Trp-oxazolone, 7.07.

Consider “AUUACAGUGGUCAUCGAGUGA [Fam2.1 aminoacylation ribozyme variant]”, for which the self-aminoacylation was 1.09 in the series with biotinyl-Phe-oxazolone; 1.75 with biotinyl-Ile-oxazolone; 1.87 in the series with biotinyl-Met-oxazolone; 1.76 in the series with biotinyl-Val-oxazolone; 1.44 in the series on biotinyl-Leu-oxazolone; 1.78 in the series on biotinyl-Trp-oxazolone.

Consider “AUUCACCUAGGUCAUCGCUUG [Fam2.2 aminoacylation ribozyme variant]”, for which the self-aminoacylation in the series on biotinyl-Phe-oxazolone came out at 4.33; in the series on biotinyl-Ile-oxazolone, 1.18; in the series on biotinyl-Met-oxazolone it was 1.32; with biotinyl-Val-oxazolone it was 1.12; with biotinyl-Leu-oxazolone it was 1.26; in the series on biotinyl-Trp-oxazolone it was 0.795.

As for “AUCCACCUAGGUCAUCGGCUG [Fam2.2 aminoacylation ribozyme variant]”, the self-aminoacylation amounted to 9.73 in the series with biotinyl-Phe-oxazolone; 1.95 in the series with biotinyl-Ile-oxazolone; 1.72 with biotinyl-Met-oxazolone; 2.29 in the series with biotinyl-Val-oxazolone; 2.87 with biotinyl-Leu-oxazolone; 2.44 with biotinyl-Trp-oxazolone.

With “AGUACCCUGGUCACCGAGUGA [Fam2.1 aminoacylation ribozyme variant]”, the self-aminoacylation with biotinyl-Phe-oxazolone is 54.5; with biotinyl-Ile-oxazolone, 4.52; in the series with biotinyl-Met-oxazolone, 8.83; with biotinyl-Val-oxazolone, 4.11; in the series with biotinyl-Leu-oxazolone, 9.52; in the series with biotinyl-Trp-oxazolone, 11.1.

Regarding “AAGUUUGCUACUAGUCGGAAG [Fam3.1 aminoacylation ribozyme variant]”, the self-aminoacylation with biotinyl-Phe-oxazolone was 0.777; in the series with biotinyl-Ile-oxazolone, 0.835; with biotinyl-Met-oxazolone, 0.712; with biotinyl-Val-oxazolone, 0.749; with biotinyl-Leu-oxazolone, 0.518; with biotinyl-Trp-oxazolone, 0.866.

Consider “AUUACCGUGGUCAUCGAGUGC [Fam2.1 aminoacylation ribozyme variant]”, for which the self-aminoacylation in the series with biotinyl-Phe-oxazolone was found to be 2.57; with biotinyl-Ile-oxazolone, 0.895; in the series with biotinyl-Met-oxazolone it was 0.762; in the series with biotinyl-Val-oxazolone, 1.05; in the series with biotinyl-Leu-oxazolone, 1.08; in the series with biotinyl-Trp-oxazolone it was 1.

Regarding “AUCCACCUAGGUCAUCGGAUG [Fam2.2 aminoacylation ribozyme variant]”, the self-aminoacylation with biotinyl-Phe-oxazolone was 0.726; with biotinyl-Ile-oxazolone, 1.4; in the series on biotinyl-Met-oxazolone it was 1.19; in the series on biotinyl-Val-oxazolone, 1.65; in the series with biotinyl-Leu-oxazolone it was 1.11; in the series on biotinyl-Trp-oxazolone, 1.04.

For the sequence “CCACAUUUCAAACAAUCGGUC [Fam1B.1 aminoacylation ribozyme variant]”, the self-aminoacylation in the series on biotinyl-Phe-oxazolone was 17.8; with biotinyl-Ile-oxazolone, 1.41; in the series with biotinyl-Met-oxazolone, 1.33; in the series on biotinyl-Val-oxazolone, 1.28; with biotinyl-Leu-oxazolone, 1.31; with biotinyl-Trp-oxazolone it was 9.95.
